Literature values, collected in PMC2663012.
pKd: −log10 of the molar value.

Target: PKR (Homo sapiens) (UniProt P19525)
Experiment: analytical ultracentrifugation

pKd: 3.35
Substance: PKR (from UniProt P19525)
